The values that follow come from patent publication US9040042B2, “Optimized antibodies that target HM1.24” (Xencor, Inc., priority 2006, dated 2015).

Where “and” joins values, the source holds several entries; their conditions need not be identical. Identical values can stand only once. Like-named read-outs stand apart in the source and are kept apart here.

The target in assay [1] is T1, human F158 FcγRIIIa (Homo sapiens, UniProt P08637). The conditions noted are these: read-out: affinity for human F158 FcγRIIIa, cited from earlier work.
Assay [2] has as its target T2, human V158 FcγRIIIa (Homo sapiens, UniProt P08637, F176V). The experiment in a line: Binding of human WT IgG1 to human V158 FcγRIIIa (Biacore, calorimetry). The conditions noted are these: present study; read-out: affinity for human V158 FcγRIIIa. On the procedure: (§1) This is consistent with the literature which indicate that binding is approximately 200-500 nM, as determined by Biacore (210 nM as shown in Okazaki et al, 2004, J Mol Bio 336:1239-49; 250 nM as shown in Lazar et al, Proc Natl Acad Sci USA 103(11):4005-4010) and calorimetry (530 nM, Okazaki et al, 2004, J Mol Bio 336:1239-49).
(In SPR one partner is held on a chip, and binding of the other changes the refractive index at the surface.)

In assay [3] the target is T2, human V158 FcγRIIIa. The conditions noted are these: read-out: affinity for human V158 FcγRIIIa, cited from earlier work.
For assay [4], the target named is T1, human F158 FcγRIIIa. Briefly: Binding of human WT IgG1 to human F158 FcγRIIIa (Biacore, calorimetry). The conditions noted are these: present study; binding lower than the 5 uM cutoff applied; read-out: affinity for human F158 FcγRIIIa. On the procedure:
as §1

Assay [5] addresses T3, CD20 (Homo sapiens, UniProt P11836).
T3 construct: endogenous in cells; host or cells: patients' own cells (clinical treatment, reported from the literature)
T3 sequence (P11836 1-297): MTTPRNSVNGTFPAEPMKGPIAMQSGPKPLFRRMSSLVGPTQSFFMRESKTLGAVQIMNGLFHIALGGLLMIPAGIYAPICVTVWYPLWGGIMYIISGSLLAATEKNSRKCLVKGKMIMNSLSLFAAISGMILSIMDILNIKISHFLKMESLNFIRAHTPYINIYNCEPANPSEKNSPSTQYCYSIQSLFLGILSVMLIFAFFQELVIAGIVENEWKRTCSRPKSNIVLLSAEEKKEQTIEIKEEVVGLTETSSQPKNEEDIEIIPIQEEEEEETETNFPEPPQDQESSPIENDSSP
The conditions noted are these: cited from earlier work.

The mark [6] stands for this setting: calorimetry, Okazaki et al 2004.

T1 sequence (P08637 17-208 limits assumed): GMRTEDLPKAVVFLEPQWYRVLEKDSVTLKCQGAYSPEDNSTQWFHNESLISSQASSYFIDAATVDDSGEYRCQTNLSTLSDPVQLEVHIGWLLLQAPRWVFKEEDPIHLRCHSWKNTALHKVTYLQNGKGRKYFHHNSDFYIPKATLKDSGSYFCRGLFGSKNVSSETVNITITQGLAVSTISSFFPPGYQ
T2 sequence (P08637 17-208 F176V limits assumed): as the sequence (P08637 17-208 limits assumed) above, with F160V counted along it

With “human WT IgG1: Human wild type IgG1 immunoglobulin, reference for Fc receptor binding”, the Kd was 5 µM in assay [1] (Biacore, Ferrara et al 2006); 2.7 µM in assay [1] (setting [6]); 3 to 5 µM in assay [1] (literature overall); roughly 0.24 µM in assay [2]; 0.21 µM and 0.25 µM in assay [3] (Biacore, Okazaki et al 2004, Lazar et al); 0.53 µM in assay [3] (setting [6]). Besides, the Kd in assay [3] (literature overall) is 0.2 to 0.5 µM; in assay [3] (one study, Ferrara et al 2006), 0.75 µM; in assay [4], greater than 5 µM.

Consider “Rituxan: anti-CD20 antibody Rituxan® (rituximab)”, for which, in assay [5] (patients homozygous or heterozygous for FcγRIIIA 158F, Carton 2002, Weng 2003), the clinical efficacy result is given as “minimally effective”. For the same substance, in assay [5] (patients with FcγRIIIA 158 V/V homozygous genotype, Dall'Ozzo et al. 2004), the clinical response result was “better clinical response”.
